Reference: patent US20220153796A1

Each binder was assayed against HLA-A*24 (human) (assay: UV peptide exchange ELISA).

Binder	peptide exchange yield
YYSKSVGFMQW	> 75%
QYLPGWTVLF	> 75%
HYTYILEVF	> 75%
SLPDLTPTF	> 75%
TQPGDWTLF	> 75%
KYTNWKAFL	> 75%
KQMEDGHTLF	20 to 50%
LYISEVRNI	> 75%
DYIGSVEKW	> 75%
SYNGYVFYL	> 75%
YYSIISHTL	> 75%
QYQNVLTLW	> 75%
SYEKVINYL	> 75%
RYMKKDYLI	> 75%
KFIISDWRF	> 75%
YYADKKTFIVL	50 to 75%
MYPDLSELLM	> 75%
AFPVTSIFHTF	> 75%
SYPELVKMVW	> 75%
KYALLLQDL	> 75%
KYALLLQEL	> 75%
TLPNTIYRF	> 75%
NYTLYPITF	> 75%
QYDPTPLTW	> 75%
KSSVIASLLF	50 to 75%
VWSNVTPLKF	> 75%
VQQWSVAVF	50 to 75%

Binder	peptide exchange yield
MQPRMFFLF	> 75%
KYMKIFHKF	> 75%
LIFMLANVF	10 to 20%
KYLEESVWL	> 75%
VYPLLSRLYW	> 75%
VYMIEPLEL	> 75%
KYADYFLEV	> 75%
IQMDEPMAF	10 to 20%
EFTTVLYNF	> 75%
PFLPPAACFF	> 75%
TYNPDFSSL	50 to 75%
YLEKFYGL	20 to 50%
RWMDQRLVF	> 75%
KYITNLEDL	> 75%
STIRGELFFF	10 to 20%
ILKEDPFLF	10 to 20%
KTPTNYYLF	> 75%
LLIKLLQTF	50 to 75%
KYKDYFPVI	> 75%
KYFVPPQLF	> 75%
AYLSAVGTF	> 75%
QWPWQASLQF	> 75%
SYSSCYSF	50 to 75%
SYEVRSTF	50 to 75%
VWSDVTPLNF	> 75%
QYEPPSAPSTTF	50 to 75%
VFIDHPVHLKF	> 75%
